# Source: PMC10823258 (Proceedings of the National Academy of Sciences of the …, 2024)
# Read-outs that look alike come from different tables or passages of the source.
# T1: wheat eIF4E (Triticum aestivum, UniProt P29557)
# T1 sequence (P29557 39-215): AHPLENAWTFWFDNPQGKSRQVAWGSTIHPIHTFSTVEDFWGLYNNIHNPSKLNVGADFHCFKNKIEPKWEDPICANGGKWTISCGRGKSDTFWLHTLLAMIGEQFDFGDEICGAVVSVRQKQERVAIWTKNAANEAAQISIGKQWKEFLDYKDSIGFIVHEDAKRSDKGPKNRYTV
# Assays:
# wheat eIF4E = biological target: T1, wheat eIF4E; experiment: isothermal titration calorimetry; assay type: binding
# human eIF4E [1] = biological target: T2, human eIF4E (human, UniProt P06730); experiment: ITC
# GB1-human eIF4E = GB1-human eIF4E (human, UniProt P06730); experiment: ITC
# human eIF4E [2] = biological target: T2, human eIF4E; experiment: ITC; remark: listed apart in the source
# human eIF4E [3] = biological target: T2, human eIF4E; experiment: ITC; remark: listed apart in the source
# human eIF4E [4] = biological target: T2, human eIF4E; experiment: ITC; remark: listed apart in the source
molecule,measurement,setting,value
C[n+]1cn([C@@H]2O[C@H](COP(=O)(O)OP(=O)(O)OP(=O)(O)O)[C@@H](O)[C@H]2O)c2nc(N)[nH]c(=O)c21 [m7GTP],Kd,wheat eIF4E,1800 ± 800 nM
"GGGGUCUCUCUUGUCGAGAGGCAAGGAACCC (ssRNA, 5' cap (m7G)) [5' capped RNA]",Kd,human eIF4E [1],76 ± 3 nM
SCV PTE WT (structured_RNA) RNA: GGUUGCUCGACUGUGAGGGGACCUACCCACUGUGCUGCCACACAGGAACUUCCAACCUUCGGGUGGCGAGGUAGGGCAGAAGAGUGACC,Kd,GB1-human eIF4E,900 ± 236 nM
same,Kd,human eIF4E [2],576 ± 56 nM
SCV PTE G18C (structured_RNA) RNA: GGUUGCUCGACUGUGAGCGGACCUACCCACUGUGGAAACACCACAGGAACUUCCAACCUUCGGGUGGCGAGGUAGGGCAGAAGAGUGACC,binding result,human eIF4E [3],no binding
SCV PTE G18U (structured_RNA) RNA: GGUUGCUCGACUGUGAGUGGACCUACCCACUGUGGAAACACCACAGGAACUUCCAACCUUCGGGUGGCGAGGUAGGGCAGAAGAGUGACC,binding result,human eIF4E [3],no binding
SCV PTE G18A (structured_RNA) RNA: GGUUGCUCGACUGUGAGAGGACCUACCCACUGUGGAAACACCACAGGAACUUCCAACCUUCGGGUGGCGAGGUAGGGCAGAAGAGUGACC,Kd,human eIF4E [4],6200 ± 900 nM
